Here are results for 1 molecule from publication PMC5707411 (2017).

Assay [1] deals with prefusion-stabilized RSV F strain A2 (DS-Cav1). The experiment in a line: SPR. (In SPR one partner is held on a chip, and binding of the other changes the refractive index at the surface.)
Assay [2] shares this target. The experiment in a line: SPR. This is another data set of the same source.

B1: 5C4 Fab (Fab, V domains shown)
VH: EVQLQQSGAELVKPGASVKLSCTASGFNIKDTFFHWVKQRPEQGLEWIGRIDPADGHTKYDPKFQGKATITADTSSNTAFLQLSSLTSVDTAVYYCATTITAVVPTPYNAMDYWGQGTSVTVSS
VL: DIVLTQSPASLAVSLGQRTTISCRASESVDSFDNSFIHWYQQKPGQPPKLLIFLASSLESGVPARFSGSGSRTDFTLTIDPVEADDAATYYCQQSNEDPFTFGSGTKLEIK
Broadly, the Kd is the equilibrium constant for the complex coming apart. What is called koff is the rate constant with which the complex falls apart. The low end stands for a long-lived complex, the high end for a short-lived complex. B1 yielded a Kd in assay [1] of 25.7 nM. This molecule also displayed a koff in assay [2] of 0.00454 s⁻¹.
